The record followed here is patent US20260347495 (published 2026).

Assay [1] concerns the target lactotransferrin (human, UniProt P02788). Put plainly: ELISA. (An ELISA detects its analyte on a solid surface through an enzyme-linked reagent.)
Assay [2] concerns the target transferrin (human, UniProt P02787). Put plainly: ELISA.

Chain of lactotransferrin (P02788 20-710): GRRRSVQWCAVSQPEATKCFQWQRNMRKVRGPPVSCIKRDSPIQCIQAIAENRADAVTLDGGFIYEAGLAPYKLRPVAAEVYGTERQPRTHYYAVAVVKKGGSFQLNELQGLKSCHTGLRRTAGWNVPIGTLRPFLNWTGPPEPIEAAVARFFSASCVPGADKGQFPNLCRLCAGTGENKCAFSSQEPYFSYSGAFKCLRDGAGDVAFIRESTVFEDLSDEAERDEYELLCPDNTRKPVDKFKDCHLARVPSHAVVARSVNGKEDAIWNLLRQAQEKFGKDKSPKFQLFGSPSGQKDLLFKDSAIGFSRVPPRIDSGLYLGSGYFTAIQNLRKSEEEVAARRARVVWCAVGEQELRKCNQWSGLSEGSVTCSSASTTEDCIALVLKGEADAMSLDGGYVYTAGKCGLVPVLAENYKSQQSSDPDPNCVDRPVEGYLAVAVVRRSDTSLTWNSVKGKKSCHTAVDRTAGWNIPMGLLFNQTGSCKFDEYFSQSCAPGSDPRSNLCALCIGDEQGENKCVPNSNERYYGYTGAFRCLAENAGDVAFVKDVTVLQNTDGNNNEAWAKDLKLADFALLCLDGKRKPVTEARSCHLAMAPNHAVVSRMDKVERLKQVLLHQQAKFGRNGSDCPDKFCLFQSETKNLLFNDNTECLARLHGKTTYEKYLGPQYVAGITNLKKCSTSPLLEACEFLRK
Chain of transferrin (P02787 20-698): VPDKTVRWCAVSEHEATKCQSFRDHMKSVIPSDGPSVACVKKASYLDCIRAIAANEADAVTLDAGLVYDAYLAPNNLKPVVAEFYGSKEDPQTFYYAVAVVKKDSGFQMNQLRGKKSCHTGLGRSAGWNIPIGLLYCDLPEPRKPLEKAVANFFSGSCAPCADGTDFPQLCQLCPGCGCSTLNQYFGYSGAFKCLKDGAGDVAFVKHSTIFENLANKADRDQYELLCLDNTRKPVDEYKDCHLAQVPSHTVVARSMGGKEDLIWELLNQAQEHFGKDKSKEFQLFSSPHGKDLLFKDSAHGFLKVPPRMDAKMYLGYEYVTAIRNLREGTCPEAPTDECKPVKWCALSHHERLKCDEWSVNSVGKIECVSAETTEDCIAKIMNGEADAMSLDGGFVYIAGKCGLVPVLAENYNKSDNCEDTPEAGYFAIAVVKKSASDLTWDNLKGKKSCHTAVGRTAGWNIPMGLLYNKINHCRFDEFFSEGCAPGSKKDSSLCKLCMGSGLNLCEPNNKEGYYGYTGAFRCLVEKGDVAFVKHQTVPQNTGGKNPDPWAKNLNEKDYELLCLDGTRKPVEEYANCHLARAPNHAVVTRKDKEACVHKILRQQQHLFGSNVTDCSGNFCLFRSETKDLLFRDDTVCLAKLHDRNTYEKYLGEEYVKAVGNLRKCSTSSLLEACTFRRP

B1: OMT36 (clone 36) (antibody, V domains shown)
VH: QVQLVQSGAEVKKPGASVKVSCKASGYTFTNYDINWVRQATGQGLEWMGWMNPNSGNTDYVQKFQGRVAMTRITSISTAYLELSSLRSDDTAVYYCARGLHSGDYYSYGMDVWGQGTTVTVSS
VL: SYELTQPPSVSVSPGQTARITCSGDALPNQYAYWYQQKPGQAPVLVIYKDSERPSGIPERFSGSSSGTTVTLTISGVQAEDEADYYCQSADSSGTVVFGGGTKLSVL
Turning to B1, the binding result in assay [1] and in assay [2] was “no binding” throughout.

B2: OMT35 (clone 35) (antibody, V domains shown)
VH: QVQLQQSGPGLVKPSQTLSLTCAISGDSVSSNSAAWNWIRQSPSSGLEWLGRTYYRSKWFDDYAVSVKGRITINPDTSKNQFSLQLKFVIPEDTAVYYCARRVHWGGPFDYWGQGTLVTVSS
VL: DIQLTQSPSFLSASVGDRVTITCRASQGISSYLAWYQQRPGKAPKVLISVASTLQSGVPSRFSGSGSGTDFTLTISSLQPEDFATYYCQQLTGYPFTFGPGTKVDIK
Turning to B2, the binding result in assay [1] and in assay [2] was “no binding” in each case.

B3: OMT8 (clone 8) (antibody, V domains shown)
VH: QVQLQESGPGLVKPSQTLSLTCTVSGGSISSGGYYWSWIRQHPGKGLEWIGYIHYIGSTYQNPSLKSRVTMSVDTSKNQFSLRLTSVTAADTAVYYCARESGDTAMVFDYWGQGTQVTVSS
VL: QSALTQPPSASGSPGQSVTISCTGTSSDVGGYNYVSWYQQHPGKAPKVMIYEVSTRPSGVPDRFSGSKSGNTASLTVSGLQAEDEADYYCSSYAGNNNFVFGTGTKVTVL
Take B3: the binding result in assay [1] and in assay [2] was “no binding” each time.

B4: OMT30 (clone 30) (antibody, V domains shown)
VH: QVQLVESGGGVVQPGRSLRLSCAASGFTFSSYGIHWVRQAPGKGLEWVAVIWYDGSNKYYADSVKGRFTISRDNSKNTLYLQMNSLRAEDTAVYYCARRGDSSSWHFDYWGQGTLVTVSS
VL: QSALTQPASVSGSPGQSITISCTGTSSDVGRHNLVSWYQQHPGKVPKVMIYEVTKRPAGVSNRFSGSKSGNTASLTISGLQAEDEADYYCCSYAGSSTYVFGTGTRVTVL
Turning to B4, the binding result in assay [1] and in assay [2] was “no binding” each time.

B5: OMT24 (clone 24) (antibody, V domains shown)
VH: QVQLVQSGSELKKPGASVKVSCKASGYTFTTYVMNWVRQAPGQGLEWMGWINTNTGNPTYAQGFTGRFVFSVDTSVSTAYLQISSLKAEDTAVYYCARDRVLLWFGAGYYHYGMDVWGQGTTVTVSS
VL: SSELTQDPAVSVALGQTVRITCQGDSLRSYYTSWYQQKPGQAPVFVIYGKNNRPSGIPDRFSGSSSGNTASLTITGAQAEDEADYYCNSRDSSGNHVVFGGGTKLTVL
For B5, the binding result in assay [1] and in assay [2] was “no binding” in each case.
